Measured values taken from the RNAGym collection of RNA variant scans (doi:10.7554/elife.80360).

B1: HDV Ribozyme (parent)
chain: GGCCGGCAUGGUCCCAGCCUCCUCGCUGGCGCCGGCUGGGCAACAUUCCGAGGGGACCGUCCCCUCGGUAAUGGCGAAUGGGACCCA

Variants of: B1
Experiment: self-cleavage, relative activity (ratio to wild type); higher = more cleavage; co-transcriptional

Variant | self-cleavage
G38U C84G | 0.115
G39A G81C | 0.113
G38C G81U | 0.0779
G38C G81C | 0.0354
G39A G55A | 0.683
G39A G55U | 0.356
G40C C61G | 0.241
G38U A56C | 0.266
G38C C57U | 0.282
G40A U65G | 0.601
G40A U65C | 1.12
G38U A42C | 0.0941
G40U A45C | 0.295
G40U A70C | 0.391
U37G C84G | 0
G38U G74A | 0.0248
G38A U46G | 0.111
G38A U46A | 0
G40C A51G | 0.288
G38U U46A | 0.106
G38U A71U | 0.222
G38U A71G | 0.166
G40C C64U | 0.223
G40A U46G | 0.554

Variant | self-cleavage
U37G C85U | 0.161
G40A C58G | 1.02
G40U A56U | 0.801
G40U A56G | 0.677
G39U G68U | 0.56
G39U G68A | 0.841
G40C G76A | 0.163
G40A C57A | 1.18
G39A U47C | 0.208
U37G G54A | 0.0755
U37G C64A | 0.122
U37G C64G | 0.0437
G40U A87U | 0.667
G38A A45U | 0.107
G38A A45G | 0.155
G38A G59C | 0.0256
G38A G59U | 0.182
G39C A70U | 0.0308
G39C A70G | 0.151
G39C G73C | 0.151
G40A A56U | 1.02
G39A A77U | 0.176
G39A A77C | 0.108
G38U A70U | 0.277

Variant | self-cleavage
G39C C66U | 0.136
G38A G81A | 0.227
G40A C49A | 0.95
G40A C49U | 0.95
U37G U60A | 0.0504
G38C C58U | 0.408
G38A C86G | 0.107
U37G U65G | 0.0573
G40C A42C | 0.111
G40C A42U | 0.151
G39U G52C | 0.831
G40C G55U | 0.205
G40C C86U | 0.372
G39U C44G | 0.113
G38A A70G | 0
G40C C84A | 0.0831
G39C U79A | 0
G38A C61A | 0.105
U37G U46C | 0.128
G40C C75U | 0.0652
G38C A51U | 0.181
G38C A51C | 0.277
G38C G73A | 0.185
G38C C41G | 0.406

Variant | self-cleavage
G40C A83C | 0.0755
G38U A43C | 0.0811
G38A C49G | 0.151
G38A C49A | 0.172
G38U A45C | 0.181
G40A U69C | 0.876
G40A U69A | 0.892
G39U U69C | 0.769
G39U U69A | 0.492
G40C C63G | 0.138
G39U C85G | 0.69
G39C C49A | 0.237
G39C C49U | 0.166
G38A G68A | 0.21
G40A A87C | 0.981
G39U G80C | 0.181
G39A A51C | 0.389
G38C C63A | 0.332
G38C C63G | 0.287
G39A U72C | 0.135
G39A U46C | 0.181
G39A U46G | 0.0923
G39A A70C | 0.277
G38A U79G | 0.151

Variant | self-cleavage
G38A C58A | 0.115
G38A C58G | 0.141
G38U G54C | 0.4
G38U G39C | 0
G40U C49A | 0.787
G38A A87U | 0.121
G39U G82U | 0.155
G39C A77G | 0.243
G38C U69C | 0.18
G39C C62G | 0.0573
G40C G74A | 0.0978
G40A C85A | 0.859
G39C G81A | 0.185
G39A C63A | 0.538
G39A C63G | 0.352
G40A A71C | 0.485
G38A G82C | 0.262
G38A G82A | 0.0482
G40A A70C | 0.849
G39C C84U | 0.196
G38C C86G | 0.217
G40A C61U | 0.765
G40A C61A | 0.839
G40A A42U | 0.802

Variant | self-cleavage
G39A C85A | 0.332
G39A C85U | 0.465
G38A A71G | 0.177
G38A A71C | 0.032
G38U A78C | 0.086
G38U A78U | 0.0911
G38C G54U | 0.185
G40A A78C | 0.233
G39A G50U | 0.441
G40A A51C | 0.984
G38C U47A | 0.249
G38C C44A | 0.0354
G38C U60A | 0.38
G38C U60C | 0.231
G38C A83C | 0.107
G38C A83G | 0.201
G38C A83U | 0.0361
G38U C86A | 0.297
G38C C49A | 0.237
G38A A56C | 0.13
G38A A56U | 0.218
G39C G76A | 0.289
G40C U72G | 0.158
G40A G74A | 0.726

Variant | self-cleavage
G39U A56G | 0.659
G39U A87U | 0.683
G40A A77C | 0.427
G39U G40U | 0.451
G39C U65G | 0.262
G39C U65C | 0.374
G40U A43G | 0.54
U37G G76C | 0.142
U37G G76U | 0.104
G39A C44G | 0.108
G39A C44A | 0.0405
G39A C66U | 0.472
G38C A78C | 0
G40C A43U | 0.0639
G38U C61A | 0.248
G39C C58U | 0.0923
G39C C58A | 0.521
G38C C66A | 0.189
G38C C66G | 0.203
G38A C44A | 0.0678
G38A C44U | 0.136
G40C A78U | 0.122
G40C A78G | 0.318
G38A U60A | 0.117

Variant | self-cleavage
G38U C63G | 0.0978
G38U C63U | 0.24
G38U C63A | 0.159
G38A G73U | 0.0978
G38A G73C | 0.13
G40U A77C | 0.145
G40U A77U | 0.212
U37G G40U | 0.203
G40U A42G | 0.306
G38U G55C | 0.19
G38U G55U | 0.21
G38U C85U | 0.269
G38A A77U | 0.0845
G38A A77G | 0.0852
U37G G52C | 0.178
U37G G52A | 0.106
G40C A56G | 0.237
G40C A56C | 0.197
G39U A43G | 0.0811
G40A A43U | 0.446
G39U C75A | 0.166
G39U C75G | 0.0978
G39U C75U | 0.0923
G39A G40U | 0.57

Variant | self-cleavage
G39A G40C | 0.459
G39A G40A | 0.786
U37G G59C | 0.192
G39C C41U | 0.554
G39C C41A | 0.802
G38C G74A | 0.0936
G38U C62A | 0.317
G38U C62G | 0.0831
G40C U79C | 0.0509
U37G C62A | 0.0594
G38U G81A | 0.128
G38U G81C | 0.0678
G39C U69G | 0.133
G40A G81A | 0.475
G40A C75G | 0.305
G40A C75A | 0.0831
G40A U72A | 0.446
G39C G68C | 0.339
G38A G74C | 0.161
G38U C44U | 0.126
G38A C64G | 0.142
G39C G40U | 0.487
G39C G40C | 0.215
G40U A83U | 0.0936

Variant | self-cleavage
G39U A71U | 0.431
G40C A87G | 0.215
G38U A87G | 0.16
G39U G81C | 0.119
G39U G81U | 0.185
U37G U79A | 0
G39C U47A | 0.243
G40C G59C | 0.229
G38A A43G | 0.155
G39U C57U | 0.831
G39U C57A | 0.941
G39A A83C | 0.277
G39C A87U | 0.229
G38A A51G | 0.141
G39C A78G | 0.0573
G39C A78C | 0.125
G40U C41A | 0.843
G38U U65C | 0.415
G39U C64G | 0.845
G39U C64U | 0.597
G39A G67A | 0.453
G38A C63A | 0.0978
G38A C63G | 0.0811
G38U C75A | 0.208

Variant | self-cleavage
G39A C86A | 0.53
G40A G53U | 0.823
G40A U60G | 0.916
G38C U46C | 0.0923
G38C U46G | 0.095
G38C C84G | 0.0489
G38U G50C | 0.225
U37G G74U | 0.213
G38U G76A | 0.145
G38U G76C | 0.228
G38A C41G | 0.291
G39A A42G | 0.0292
G39A A42U | 0.272
G38A G54C | 0.237
G38A G54U | 0.073
G38C G59C | 0.266
G39A A45U | 0.389
G38U G82A | 0.0886
G40A G52C | 0.986
G39C C44U | 0.0707
G38U A83G | 0.0866
G38A U72C | 0.108
G38C G82U | 0.162
G38C G82C | 0.222

Variant | self-cleavage
G38C C64A | 0.228
U37G G53A | 0.147
G39U C41A | 0.719
G40C U65C | 0.155
G39A C75U | 0.178
G39A C75A | 0.0755
G39U U47C | 0.393
G39A G68U | 0.554
G39A G68C | 0.441
G39U A83G | 0.444
G40U A71C | 0.327
G40C G81U | 0.162
G39A G73U | 0.0845
G39A G73A | 0.0801
G38A G52A | 0.173
G38A G52C | 0.0692
G40C C41U | 0.629
G40C C41G | 0.222
G38U C58U | 0.295
G39A C49G | 0.366
G38U G67A | 0.237
G38U G67U | 0.166
G39U G73U | 0.211
G40C U47C | 0.243

Variant | self-cleavage
G38A G55C | 0.218
G39U C49U | 0.649
G39U C49A | 0.604
G40A G54A | 1.04
G39U U65C | 0.752
G40U C44G | 0.194
G40C U69G | 0.361
G38U C66G | 0.0764
G38C A87C | 0.26
G39U A51U | 0.611
G39C C57G | 0.415
G39C C57U | 0.345
G40A G68A | 1.01
G40A G68U | 0.997
G38A G50C | 0.0831
U37G C75U | 0.0594
U37G C75A | 0.156
G39U C58A | 0.665
G38C G40U | 0.0332
G39U G76U | 0.819
U37G U72A | 0
U37G U72C | 0.119
G40C C44U | 0.0627
G40C C44G | 0.106

Variant | self-cleavage
G40C C44A | 0.0468
G40C C48U | 0.326
U37G G81U | 0.0489
U37G G81C | 0
G39U C66A | 0.739
G39U C66G | 0.831
G39C G67A | 0.134
G39C G67C | 0.232
U37G G39C | 0.185
G38U A51U | 0.308
G38U G68A | 0.163
U37G C86U | 0.249
U37G C86G | 0.111
G39C G53A | 0.308
G40C A71C | 0.121
G39U C63A | 0.598
G39U C62A | 0.623
G39U C62G | 0.408
G40A C64U | 0.925
G39U A77G | 0.564
G39U A77C | 0.233
G38U G40C | 0.0923
